According to patent US20210388087A1 (Chugai, published 2021):

Target: T1, Human CD137 ECD (human)
T1 construct: entry includes C-terminal His-tag and biotin acceptor peptide; also called human CD137 extracellular domain; 4-1BB
Assay: Biacore SPR, vs parent H183/L072

T1 sequence (chain, as listed by the source limits assumed): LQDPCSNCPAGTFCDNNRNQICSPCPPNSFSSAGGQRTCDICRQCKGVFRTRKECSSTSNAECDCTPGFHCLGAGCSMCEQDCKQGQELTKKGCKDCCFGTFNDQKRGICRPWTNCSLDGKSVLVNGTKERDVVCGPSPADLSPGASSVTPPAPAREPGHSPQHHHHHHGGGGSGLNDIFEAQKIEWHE

Row | fold change of affinity | Binder
1 | 0.4 fold | H183/L072 VL N28H (antibody, name in Kabat numbering, V domains shown, Dual-Ig) VH: QVQLVESGGGLVQPGRSLRLSCAASGFTFSNAWMHWVRQAPGKGLEWVAQIKDKGNAYAAYYAPSVKGRFTISRDDSKNSIYLQMNSLKTEDTAVYYCHYVHYASASTVLPAFGVDAWGQGTTVTVSS VL: DIVMTQSPLSLPVTPGEPASISCQASQELVHMHRNTYLHWYQQKPGQAPRLLIYKVSNRFPGVPDRFSGSGSGTDFTLKISRVEAEDVGVYYCAQGTSVPFTFGQGTKLEIK
2 | 0.4 fold | H183/L072 VL N28F (antibody, name in Kabat numbering, V domains shown, Dual-Ig) VH: QVQLVESGGGLVQPGRSLRLSCAASGFTFSNAWMHWVRQAPGKGLEWVAQIKDKGNAYAAYYAPSVKGRFTISRDDSKNSIYLQMNSLKTEDTAVYYCHYVHYASASTVLPAFGVDAWGQGTTVTVSS VL: DIVMTQSPLSLPVTPGEPASISCQASQELVHMFRNTYLHWYQQKPGQAPRLLIYKVSNRFPGVPDRFSGSGSGTDFTLKISRVEAEDVGVYYCAQGTSVPFTFGQGTKLEIK
3 | 0.2 fold | H183/L072 VL N28E (antibody, name in Kabat numbering, V domains shown, Dual-Ig) VH: QVQLVESGGGLVQPGRSLRLSCAASGFTFSNAWMHWVRQAPGKGLEWVAQIKDKGNAYAAYYAPSVKGRFTISRDDSKNSIYLQMNSLKTEDTAVYYCHYVHYASASTVLPAFGVDAWGQGTTVTVSS VL: DIVMTQSPLSLPVTPGEPASISCQASQELVHMERNTYLHWYQQKPGQAPRLLIYKVSNRFPGVPDRFSGSGSGTDFTLKISRVEAEDVGVYYCAQGTSVPFTFGQGTKLEIK
4 | 0.3 fold | H183/L072 VL N28K (antibody, name in Kabat numbering, V domains shown, Dual-Ig) VH: QVQLVESGGGLVQPGRSLRLSCAASGFTFSNAWMHWVRQAPGKGLEWVAQIKDKGNAYAAYYAPSVKGRFTISRDDSKNSIYLQMNSLKTEDTAVYYCHYVHYASASTVLPAFGVDAWGQGTTVTVSS VL: DIVMTQSPLSLPVTPGEPASISCQASQELVHMKRNTYLHWYQQKPGQAPRLLIYKVSNRFPGVPDRFSGSGSGTDFTLKISRVEAEDVGVYYCAQGTSVPFTFGQGTKLEIK
5 | 0.3 fold | H183/L072 VL N28I (antibody, name in Kabat numbering, V domains shown, Dual-Ig) VH: QVQLVESGGGLVQPGRSLRLSCAASGFTFSNAWMHWVRQAPGKGLEWVAQIKDKGNAYAAYYAPSVKGRFTISRDDSKNSIYLQMNSLKTEDTAVYYCHYVHYASASTVLPAFGVDAWGQGTTVTVSS VL: DIVMTQSPLSLPVTPGEPASISCQASQELVHMIRNTYLHWYQQKPGQAPRLLIYKVSNRFPGVPDRFSGSGSGTDFTLKISRVEAEDVGVYYCAQGTSVPFTFGQGTKLEIK
6 | 0.3 fold | H183/L072 VL N28L (antibody, name in Kabat numbering, V domains shown, Dual-Ig) VH: QVQLVESGGGLVQPGRSLRLSCAASGFTFSNAWMHWVRQAPGKGLEWVAQIKDKGNAYAAYYAPSVKGRFTISRDDSKNSIYLQMNSLKTEDTAVYYCHYVHYASASTVLPAFGVDAWGQGTTVTVSS VL: DIVMTQSPLSLPVTPGEPASISCQASQELVHMLRNTYLHWYQQKPGQAPRLLIYKVSNRFPGVPDRFSGSGSGTDFTLKISRVEAEDVGVYYCAQGTSVPFTFGQGTKLEIK
7 | 0.5 fold | H183/L072 VL N28G (antibody, name in Kabat numbering, V domains shown, Dual-Ig) VH: QVQLVESGGGLVQPGRSLRLSCAASGFTFSNAWMHWVRQAPGKGLEWVAQIKDKGNAYAAYYAPSVKGRFTISRDDSKNSIYLQMNSLKTEDTAVYYCHYVHYASASTVLPAFGVDAWGQGTTVTVSS VL: DIVMTQSPLSLPVTPGEPASISCQASQELVHMGRNTYLHWYQQKPGQAPRLLIYKVSNRFPGVPDRFSGSGSGTDFTLKISRVEAEDVGVYYCAQGTSVPFTFGQGTKLEIK
8 | 0.4 fold | H183/L072 VL N28A (antibody, name in Kabat numbering, V domains shown, Dual-Ig) VH: QVQLVESGGGLVQPGRSLRLSCAASGFTFSNAWMHWVRQAPGKGLEWVAQIKDKGNAYAAYYAPSVKGRFTISRDDSKNSIYLQMNSLKTEDTAVYYCHYVHYASASTVLPAFGVDAWGQGTTVTVSS VL: DIVMTQSPLSLPVTPGEPASISCQASQELVHMARNTYLHWYQQKPGQAPRLLIYKVSNRFPGVPDRFSGSGSGTDFTLKISRVEAEDVGVYYCAQGTSVPFTFGQGTKLEIK

Continued, binder first:

Row | Binder | fold change of affinity
9 | H183/L072 VL M27eH (antibody, name in Kabat numbering, V domains shown, Dual-Ig) VH: QVQLVESGGGLVQPGRSLRLSCAASGFTFSNAWMHWVRQAPGKGLEWVAQIKDKGNAYAAYYAPSVKGRFTISRDDSKNSIYLQMNSLKTEDTAVYYCHYVHYASASTVLPAFGVDAWGQGTTVTVSS VL: DIVMTQSPLSLPVTPGEPASISCQASQELVHHNRNTYLHWYQQKPGQAPRLLIYKVSNRFPGVPDRFSGSGSGTDFTLKISRVEAEDVGVYYCAQGTSVPFTFGQGTKLEIK | 0.8 fold
10 | H183/L072 VL M27eS (antibody, name in Kabat numbering, V domains shown, Dual-Ig) VH: QVQLVESGGGLVQPGRSLRLSCAASGFTFSNAWMHWVRQAPGKGLEWVAQIKDKGNAYAAYYAPSVKGRFTISRDDSKNSIYLQMNSLKTEDTAVYYCHYVHYASASTVLPAFGVDAWGQGTTVTVSS VL: DIVMTQSPLSLPVTPGEPASISCQASQELVHSNRNTYLHWYQQKPGQAPRLLIYKVSNRFPGVPDRFSGSGSGTDFTLKISRVEAEDVGVYYCAQGTSVPFTFGQGTKLEIK | 0.9 fold
11 | H183/L072 VL M27eL (antibody, name in Kabat numbering, V domains shown, Dual-Ig) VH: QVQLVESGGGLVQPGRSLRLSCAASGFTFSNAWMHWVRQAPGKGLEWVAQIKDKGNAYAAYYAPSVKGRFTISRDDSKNSIYLQMNSLKTEDTAVYYCHYVHYASASTVLPAFGVDAWGQGTTVTVSS VL: DIVMTQSPLSLPVTPGEPASISCQASQELVHLNRNTYLHWYQQKPGQAPRLLIYKVSNRFPGVPDRFSGSGSGTDFTLKISRVEAEDVGVYYCAQGTSVPFTFGQGTKLEIK | 0.8 fold
12 | H183/L072 VL M27eW (antibody, name in Kabat numbering, V domains shown, Dual-Ig) VH: QVQLVESGGGLVQPGRSLRLSCAASGFTFSNAWMHWVRQAPGKGLEWVAQIKDKGNAYAAYYAPSVKGRFTISRDDSKNSIYLQMNSLKTEDTAVYYCHYVHYASASTVLPAFGVDAWGQGTTVTVSS VL: DIVMTQSPLSLPVTPGEPASISCQASQELVHWNRNTYLHWYQQKPGQAPRLLIYKVSNRFPGVPDRFSGSGSGTDFTLKISRVEAEDVGVYYCAQGTSVPFTFGQGTKLEIK | 0.7 fold
13 | H183/L072 VL M27eN (antibody, name in Kabat numbering, V domains shown, Dual-Ig) VH: QVQLVESGGGLVQPGRSLRLSCAASGFTFSNAWMHWVRQAPGKGLEWVAQIKDKGNAYAAYYAPSVKGRFTISRDDSKNSIYLQMNSLKTEDTAVYYCHYVHYASASTVLPAFGVDAWGQGTTVTVSS VL: DIVMTQSPLSLPVTPGEPASISCQASQELVHNNRNTYLHWYQQKPGQAPRLLIYKVSNRFPGVPDRFSGSGSGTDFTLKISRVEAEDVGVYYCAQGTSVPFTFGQGTKLEIK | 0.8 fold
14 | H183/L072 VL M27eQ (antibody, name in Kabat numbering, V domains shown, Dual-Ig) VH: QVQLVESGGGLVQPGRSLRLSCAASGFTFSNAWMHWVRQAPGKGLEWVAQIKDKGNAYAAYYAPSVKGRFTISRDDSKNSIYLQMNSLKTEDTAVYYCHYVHYASASTVLPAFGVDAWGQGTTVTVSS VL: DIVMTQSPLSLPVTPGEPASISCQASQELVHQNRNTYLHWYQQKPGQAPRLLIYKVSNRFPGVPDRFSGSGSGTDFTLKISRVEAEDVGVYYCAQGTSVPFTFGQGTKLEIK | 1 fold
15 | H183/L072 VL M27eP (antibody, name in Kabat numbering, V domains shown, Dual-Ig) VH: QVQLVESGGGLVQPGRSLRLSCAASGFTFSNAWMHWVRQAPGKGLEWVAQIKDKGNAYAAYYAPSVKGRFTISRDDSKNSIYLQMNSLKTEDTAVYYCHYVHYASASTVLPAFGVDAWGQGTTVTVSS VL: DIVMTQSPLSLPVTPGEPASISCQASQELVHPNRNTYLHWYQQKPGQAPRLLIYKVSNRFPGVPDRFSGSGSGTDFTLKISRVEAEDVGVYYCAQGTSVPFTFGQGTKLEIK | 1 fold
16 | H183/L072 VL M27eR (antibody, name in Kabat numbering, V domains shown, Dual-Ig) VH: QVQLVESGGGLVQPGRSLRLSCAASGFTFSNAWMHWVRQAPGKGLEWVAQIKDKGNAYAAYYAPSVKGRFTISRDDSKNSIYLQMNSLKTEDTAVYYCHYVHYASASTVLPAFGVDAWGQGTTVTVSS VL: DIVMTQSPLSLPVTPGEPASISCQASQELVHRNRNTYLHWYQQKPGQAPRLLIYKVSNRFPGVPDRFSGSGSGTDFTLKISRVEAEDVGVYYCAQGTSVPFTFGQGTKLEIK | 1 fold
17 | H183/L072 VL M27eK (antibody, name in Kabat numbering, V domains shown, Dual-Ig) VH: QVQLVESGGGLVQPGRSLRLSCAASGFTFSNAWMHWVRQAPGKGLEWVAQIKDKGNAYAAYYAPSVKGRFTISRDDSKNSIYLQMNSLKTEDTAVYYCHYVHYASASTVLPAFGVDAWGQGTTVTVSS VL: DIVMTQSPLSLPVTPGEPASISCQASQELVHKNRNTYLHWYQQKPGQAPRLLIYKVSNRFPGVPDRFSGSGSGTDFTLKISRVEAEDVGVYYCAQGTSVPFTFGQGTKLEIK | 1.1 fold
18 | H183/L072 VL M27eT (antibody, name in Kabat numbering, V domains shown, Dual-Ig) VH: QVQLVESGGGLVQPGRSLRLSCAASGFTFSNAWMHWVRQAPGKGLEWVAQIKDKGNAYAAYYAPSVKGRFTISRDDSKNSIYLQMNSLKTEDTAVYYCHYVHYASASTVLPAFGVDAWGQGTTVTVSS VL: DIVMTQSPLSLPVTPGEPASISCQASQELVHTNRNTYLHWYQQKPGQAPRLLIYKVSNRFPGVPDRFSGSGSGTDFTLKISRVEAEDVGVYYCAQGTSVPFTFGQGTKLEIK | 0.9 fold
19 | H183/L072 VL M27eI (antibody, name in Kabat numbering, V domains shown, Dual-Ig) VH: QVQLVESGGGLVQPGRSLRLSCAASGFTFSNAWMHWVRQAPGKGLEWVAQIKDKGNAYAAYYAPSVKGRFTISRDDSKNSIYLQMNSLKTEDTAVYYCHYVHYASASTVLPAFGVDAWGQGTTVTVSS VL: DIVMTQSPLSLPVTPGEPASISCQASQELVHINRNTYLHWYQQKPGQAPRLLIYKVSNRFPGVPDRFSGSGSGTDFTLKISRVEAEDVGVYYCAQGTSVPFTFGQGTKLEIK | 0.9 fold
20 | H183/L072 VL M27eV (antibody, name in Kabat numbering, V domains shown, Dual-Ig) VH: QVQLVESGGGLVQPGRSLRLSCAASGFTFSNAWMHWVRQAPGKGLEWVAQIKDKGNAYAAYYAPSVKGRFTISRDDSKNSIYLQMNSLKTEDTAVYYCHYVHYASASTVLPAFGVDAWGQGTTVTVSS VL: DIVMTQSPLSLPVTPGEPASISCQASQELVHVNRNTYLHWYQQKPGQAPRLLIYKVSNRFPGVPDRFSGSGSGTDFTLKISRVEAEDVGVYYCAQGTSVPFTFGQGTKLEIK | 0.9 fold
21 | H183/L072 VL M27eY (antibody, name in Kabat numbering, V domains shown, Dual-Ig) VH: QVQLVESGGGLVQPGRSLRLSCAASGFTFSNAWMHWVRQAPGKGLEWVAQIKDKGNAYAAYYAPSVKGRFTISRDDSKNSIYLQMNSLKTEDTAVYYCHYVHYASASTVLPAFGVDAWGQGTTVTVSS VL: DIVMTQSPLSLPVTPGEPASISCQASQELVHYNRNTYLHWYQQKPGQAPRLLIYKVSNRFPGVPDRFSGSGSGTDFTLKISRVEAEDVGVYYCAQGTSVPFTFGQGTKLEIK | 0.7 fold
